B1: Pistol ribozyme (parent)
chain: GGGUCGUUGUUCCAUAAUCGCGUGGAUAUGGCACGCAAGUUUCUACCGGGCACCGUAAAUGUCCGACUGGAGCCGUUCGGGCGGCUAUAAACAGACCUCAGGCCCGAAGCGUGGCGGCACCUGCCGCCGGUGGUAAAAAAGAUCGGAAGAGCACACGUCU

Variants of: B1
Test: aptazyme ON/OFF ratio, guanine; higher = stronger switching; co-transcriptional cleavage with and without guanine

Row | Variant | aptazyme ON/OFF ratio
1 | U8C U10A C12G C13A | 1.17
2 | U8C U10A C12G C13G | 1.14
3 | U8C U10A C12G C13U | 1.26
4 | U8C G9U U10G C12A | 1.66
5 | U8C G9U U10G C12U | 1.35
6 | U8C G9U U10G C12G | 1.6
7 | U8C G9U U10G U11G C12U C13A | 1.11
8 | U8C G9U U10G U11G C12U C13U | 1.15
9 | U8C G9U U10G U11G C12U C13G | 1.08
10 | U8C G9U U10A U11C C13A | 1.09
11 | U8C G9U U10A U11C C13U | 1.02
12 | U8C G9U U10A U11C C13G | 1.06
13 | U8C G9U U10C U11A C12G | 1.17
14 | U8C G9U U10C U11A C12A | 1.15
15 | U8C G9U U10C U11A C12U | 1.17
16 | U8C U10A U11C C12G C13G | 1.38
17 | U8C U10A U11C C12G C13U | 1.2
18 | U8C U10A U11C C12G C13A | 1.16
19 | U8C G9U U10C U11C C12U C13A | 1.07
20 | U8C G9U U10C U11C C12U C13G | 1.05
21 | U8C G9U U10C U11C C12U C13U | 1.07
22 | U8C U10C U11A C13A | 1.32
23 | U8C U10C U11A C13U | 1.28
24 | U8C U10C U11A C13G | 1.23

Row | Variant | aptazyme ON/OFF ratio
25 | U8C G9U U10G U11C C13A | 1.24
26 | U8C G9U U10G U11C C13G | 1.04
27 | U8C G9U U10G U11C C13U | 1.11
28 | U8C G9U U11C C12G C13U | 1.15
29 | U8C G9U U11C C12G C13G | 1.03
30 | U8C G9U U11C C12G C13A | 1.13
31 | U8C G9U U10C U11A C12U C13U | 1.2
32 | U8C G9U U10C U11A C12U C13A | 1.13
33 | U8C G9U U10C U11A C12U C13G | 1.09
34 | U8C G9U U10A U11G C12G C13A | 1.13
35 | U8C G9U U10A U11G C12G C13U | 1.14
36 | U8C G9U U10A U11G C12G C13G | 1.12
37 | U8C G9U U10A U11A C13U | 1.22
38 | U8C G9U U10A U11A C13G | 1.07
39 | U8C G9U U10A U11A C13A | 1.15
40 | U8C U10C U11A C12G C13U | 1.24
41 | U8C U10C U11A C12G C13G | 1.24
42 | U8C U10C U11A C12G C13A | 1.2
43 | U8C U10A U11G C13U | 1.23
44 | U8C U10A U11G C13G | 1.29
45 | U8C U10A U11G C13A | 1.3
46 | U8C G9U U10A U11G C12G | 1.23
47 | U8C G9U U10A U11G C12A | 1.07
48 | U8C G9U U10A U11G C12U | 1.43

Row | Variant | aptazyme ON/OFF ratio
49 | U8C G9U U10G U11A C12A | 1.56
50 | U8C G9U U10G U11A C12G | 1.22
51 | U8C G9U U10G U11A C12U | 1.04
52 | U8C G9U U10G C13G | 1.21
53 | U8C G9U U10G C13U | 1.67
54 | U8C G9U U10G C13A | 1.42
55 | U8C G9U U10A U11G C12A C13U | 1.26
56 | U8C G9U U10A U11G C12A C13A | 1.14
57 | U8C G9U U10A U11G C12A C13G | 1.13
58 | U8C U10C C12A C13G | 1.17
59 | U8C U10C C12A C13U | 1.42
60 | U8C U10C C12A C13A | 1.33
61 | U8C G9U U10G U11A C12A C13G | 1.17
62 | U8C G9U U10G U11A C12A C13U | 1.72
63 | U8C G9U U10G U11A C12A C13A | 1.44
64 | U8C U10C U11A C12U | 1.39
65 | U8C U10C U11A C12A | 1.34
66 | U8C U10C U11A C12G | 1.35
67 | U8C G9U U10C U11G C13U | 1.28
68 | U8C G9U U10C U11G C13G | 1.2
69 | U8C G9U U10C U11G C13A | 1.23
70 | U8C G9U U10C U11G C12G | 1.12
71 | U8C G9U U10C U11G C12U | 1.22
72 | U8C G9U U10C U11G C12A | 1.07

Row | Variant | aptazyme ON/OFF ratio
73 | U8C G9U U10G U11G C12A | 1.22
74 | U8C G9U U10G U11G C12G | 1.18
75 | U8C G9U U10G U11G C12U | 1.12
76 | U8C U10A U11A C12U C13G | 1.3
77 | U8C U10A U11A C12U C13A | 1.18
78 | U8C U10A U11A C12U C13U | 1.26
79 | U8C G9U U11C C12U C13G | 1.04
80 | U8C G9U U11C C12U C13U | 1.1
81 | U8C G9U U11C C12U C13A | 1.04
82 | U8C G9U U10G U11C C12G C13U | 1.2
83 | U8C G9U U10G U11C C12G C13G | 1.26
84 | U8C G9U U10G U11C C12G C13A | 1.22
85 | U8C U10C U11C C12U C13G | 1.26
86 | U8C U10C U11C C12U C13A | 1.23
87 | U8C U10C U11C C12U C13U | 1.28
88 | U8C U10A U11G C12A | 1.06
89 | U8C U10A U11G C12U | 1.33
90 | U8C U10A U11G C12G | 1.31
91 | U8C G9U U10A U11C C12U C13G | 1.09
92 | U8C G9U U10A U11C C12U C13U | 1.23
93 | U8C G9U U10A U11C C12U C13A | 1.19
94 | U8C U10A U11A C12A C13U | 1.12
95 | U8C U10A U11A C12A C13A | 1.19
96 | U8C U10A U11A C12A C13G | 1.07

Row | Variant | aptazyme ON/OFF ratio
97 | U8C U10A U11G C12G C13A | 1.43
98 | U8C U10A U11G C12G C13G | 1.39
99 | U8C U10A U11G C12G C13U | 1.28
100 | U8C U10A C12U C13A | 1.14
101 | U8C U10A C12U C13G | 1.11
102 | U8C U10A C12U C13U | 1.32
103 | U8C G9U U10C U11A C12A C13U | 1.11
104 | U8C G9U U10C U11A C12A C13A | 1.09
105 | U8C G9U U10C U11A C12A C13G | 1.08
106 | U8C G9U U10C U11C C12A | 1.03
107 | U8C G9U U10C U11C C12G | 1.09
108 | U8C G9U U10C U11C C12U | 1.06
109 | U8C G9U U10C C12U C13A | 1.06
110 | U8C G9U U10C C12U C13G | 1.07
111 | U8C G9U U10C C12U C13U | 1.16
112 | U8C U10A U11A C13G | 1.22
113 | U8C U10A U11A C13U | 1.21
114 | U8C U10A U11A C13A | 1.17
115 | U8C G9U U10C U11A C13G | 1.05
116 | U8C G9U U10C U11A C13A | 1.13
117 | U8C G9U U10C U11A C13U | 1.16
118 | U8C G9U U10A U11G C13A | 1.2
119 | U8C G9U U10A U11G C13G | 1.11
120 | U8C G9U U10A U11G C13U | 1.32

Row | Variant | aptazyme ON/OFF ratio
121 | U8C G9U U11G C12U | 1.59
122 | U8C G9U U11G C12G | 1.2
123 | U8C G9U U11G C12A | 1.08
124 | U8C G9U U11A C12G C13U | 1.22
125 | U8C G9U U11A C12G C13G | 1.12
126 | U8C G9U U11A C12G C13A | 1.13
127 | U8C G9U U11A C12U C13U | 1.17
128 | U8C G9U U11A C12U C13A | 1.36
129 | U8C G9U U11A C12U C13G | 1.12
130 | U8C G9U U11G C12G C13U | 1.09
131 | U8C G9U U11G C12G C13G | 1.1
132 | U8C G9U U11G C12G C13A | 1.19
133 | U8C U10C C13U | 1.51
134 | U8C U10C C13A | 1.07
135 | U8C U10C C13G | 1.26
136 | U8C G9U U10C C12G C13U | 1.24
137 | U8C G9U U10C C12G C13G | 1.19
138 | U8C G9U U10C C12G C13A | 1.12
139 | U8C G9U U10G C12A C13U | 1.57
140 | U8C G9U U10G C12A C13G | 1.13
141 | U8C G9U U10G C12A C13A | 1.48
142 | U8C G9U U10G U11G C12G C13G | 1.1
143 | U8C G9U U10G U11G C12G C13A | 1.14
144 | U8C G9U U10G U11G C12G C13U | 1.26

Row | Variant | aptazyme ON/OFF ratio
145 | U8C G9U U10C U11A | 1.44
146 | U8C G9U U10C U11C | 1.05
147 | U8C G9U U10C U11G | 1.33
148 | U8C G9U U10C U11A C12G C13A | 1.08
149 | U8C G9U U10C U11A C12G C13U | 1.08
150 | U8C G9U U10C U11A C12G C13G | 1.11
151 | U8C U10A U11C C12U C13G | 1.07
152 | U8C U10A U11C C12U C13U | 1.06
153 | U8C U10A U11C C12U C13A | 1.06
154 | U8C U10A U11C C13G | 1.04
155 | U8C U10A U11C C13U | 1.03
156 | U8C U10A U11C C13A | 1.02
157 | U8C U10A C12G | 1.21
158 | U8C U10A C12A | 1.29
159 | U8C U10A C12U | 1.1
160 | U8C U10C U11C C13G | 1.19
161 | U8C U10C U11C C13U | 1.08
162 | U8C U10C U11C C13A | 1.08
163 | U8C U10A U11A C12G | 1.28
164 | U8C U10A U11A C12A | 1.17
165 | U8C U10A U11A C12U | 1.22
166 | U8C U10C U11G C12A C13A | 1.17
167 | U8C U10C U11G C12A C13U | 1.33

Reference: the RNAGym collection of RNA variant scans (doi:10.1021/acssynbio.7b00057)
